Measured values reported in the supplement of paper PMC9112550, “Optimization of the antimicrobial peptide Bac7 by deep mutational scanning” (BMC Biology, 2022).

System: Escherichia coli TOP10
Assay: shrunken log2 fold change of peptide-encoding DNA abundance (4.5 h post-induction vs induction); higher = less antimicrobial activity (less host growth inhibition)
Conditions: time post-induction: 4.5 h; library: site-saturation at positions 5, 18, 19, 20
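Further: peptides expressed intracellularly from a pBAD plasmid library in pooled LB shake-flask culture, induced with 0.3% L-arabinose, DNA abundance read by NGS, three biological replicates, DESeq2 with apeglm shrinkage.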

Sequence | shrunken log2 fold change
RRIRDRPPRLPRPRPRPHSAPRP | 0.0279
RRIRDRPPRLPRPRPRPHSKPRP | -0.456
RRIRDRPPRLPRPRPRPHTEPRP | -0.0337
RRIRDRPPRLPRPRPRPHTTPRP | -0.117
RRIRDRPPRLPRPRPRPHYVPRP | -0.0495
RRIRDRPPRLPRPRPRPICFPRP | 0.227
RRIRDRPPRLPRPRPRPICPPRP | 0.106
RRIRDRPPRLPRPRPRPICRPRP | 0.266
RRIRDRPPRLPRPRPRPIDGPRP | 0.0392
RRIRDRPPRLPRPRPRPIGPPRP | 0.0272
RRIRDRPPRLPRPRPRPIGWPRP | -0.0185
RRIRDRPPRLPRPRPRPIHNPRP | -0.06
RRIRDRPPRLPRPRPRPIITPRP | -0.0771
RRIRDRPPRLPRPRPRPIKIPRP | 0.0725
RRIRDRPPRLPRPRPRPILLPRP | -0.28
RRIRDRPPRLPRPRPRPIMHPRP | -0.0198
RRIRDRPPRLPRPRPRPIMNPRP | 0.0718
RRIRDRPPRLPRPRPRPIMQPRP | -0.0521
RRIRDRPPRLPRPRPRPIQFPRP | -0.177
RRIRDRPPRLPRPRPRPITLPRP | -0.0934
RRIRDRPPRLPRPRPRPIVGPRP | 0.145
RRIRDRPPRLPRPRPRPIWQPRP | 0.211
RRIRDRPPRLPRPRPRPIWRPRP | 0.235
RRIRDRPPRLPRPRPRPIWTPRP | 0.0557
RRIRDRPPRLPRPRPRPIYMPRP | -0.106
RRIRDRPPRLPRPRPRPIYYPRP | -0.253
RRIRDRPPRLPRPRPRPKCTPRP | 0.0239

Sequence | shrunken log2 fold change
RRIRDRPPRLPRPRPRPKCYPRP | 0.013
RRIRDRPPRLPRPRPRPKDCPRP | 0.173
RRIRDRPPRLPRPRPRPKDDPRP | 0.0765
RRIRDRPPRLPRPRPRPKDIPRP | -0.0599
RRIRDRPPRLPRPRPRPKEIPRP | 0.0219
RRIRDRPPRLPRPRPRPKESPRP | 0.277
RRIRDRPPRLPRPRPRPKFIPRP | -0.14
RRIRDRPPRLPRPRPRPKFKPRP | -0.0689
RRIRDRPPRLPRPRPRPKFYPRP | 0.0101
RRIRDRPPRLPRPRPRPKGRPRP | 0.218
RRIRDRPPRLPRPRPRPKHEPRP | 0.134
RRIRDRPPRLPRPRPRPKHKPRP | -0.173
RRIRDRPPRLPRPRPRPKHSPRP | -0.211
RRIRDRPPRLPRPRPRPKHVPRP | 0.139
RRIRDRPPRLPRPRPRPKKCPRP | 0.0235
RRIRDRPPRLPRPRPRPKKNPRP | 0.125
RRIRDRPPRLPRPRPRPKKPPRP | -0.0462
RRIRDRPPRLPRPRPRPKKSPRP | 0.102
RRIRDRPPRLPRPRPRPKLVPRP | 0.0305
RRIRDRPPRLPRPRPRPKMNPRP | -0.366
RRIRDRPPRLPRPRPRPKNEPRP | -0.00834
RRIRDRPPRLPRPRPRPKNQPRP | -0.076
RRIRDRPPRLPRPRPRPKNVPRP | -0.0304
RRIRDRPPRLPRPRPRPKQDPRP | 0.172
RRIRDRPPRLPRPRPRPKTWPRP | 0.434
RRIRDRPPRLPRPRPRPKVAPRP | 0.458
RRIRDRPPRLPRPRPRPKVSPRP | 0.036
